Data on 4 substances can be found in patent publication US20110008814A1.

Experiment [1] concerns the target mouse IgG, anti-human transferrin monoclonal antibody (mfd. by BIO MATRIX RESEARCH, INC.). Nature of the experiment: human transferrin sandwich ELISA, 100 ng/ml transferrin, 400 ng/ml labeled antibody, ABTS.
Experiment [2] shares this target. Nature of the experiment: direct ELISA, mouse IgG immobilized from 100 ng/ml, about 0.8 µg/ml secondary antibody, ABTS. On the technique in general: An ELISA detects its analyte on a solid surface through an enzyme-linked reagent.
Experiment [3] shares this target. Nature of the experiment: direct ELISA, mouse IgG immobilized from 10 ng/ml, about 0.8 µg/ml secondary antibody, ABTS.
Experiment [4] shares this target. Nature of the experiment: human transferrin sandwich ELISA, 1 ng/ml transferrin, luminol emission.
Experiment [5] shares this target. The experiment is described as follows: human transferrin sandwich ELISA, 100 ng/ml transferrin, luminol emission; reference Comparative Examples 6 to 8.
The target is the same in experiment [6]. The experiment is described as follows: human transferrin sandwich ELISA, 1 ng/ml transferrin, luminol emission; reference horseradish POD-labeled antibodies.
Experiment [7] has the same target. Nature of the experiment: human transferrin sandwich ELISA, 100 ng/ml transferrin, luminol emission.
Experiment [8] has the same target. The experiment is described as follows: human transferrin sandwich ELISA, 1 ng/ml transferrin, luminol emission; reference Comparative Example 7.
Experiment [9] has the same target. Nature of the experiment: human transferrin sandwich ELISA, 100 ng/ml transferrin, 375 ng/ml labeled antibody, ABTS.
For experiment [10] the target is unchanged. Nature of the experiment: direct ELISA on immobilized mouse IgG, ABTS; reference Comparative Examples 1 and 2.
For experiment [11] the target is unchanged. Nature of the experiment: human transferrin sandwich ELISA, 100 ng/ml transferrin, ABTS; reference Comparative Example 3.

For “Peroxidase-conjugated AffiniPure F(ab′)2 Fragment Goat Anti-mouse IgG (H+L) (mfd. by Jackson ImmunoResearch Labs.)”, the absorbance at 405 nm in experiment [1] came to 0.45; in [2] it was 1.4; in experiment [3], 0.3.
As for “POD-labeled anti-mouse IgG (goat anti-mouse IgG (H+L) antibody, Bethyl A90-116A, reduced and labeled with maleimidated POD)”, the results for the initial stage emission value in [4] and in experiment [7] were 300000 RLU and 3.5e+06 RLU, respectively. Further, the figures for the fold of initial stage emission value against the horseradish POD-labeled antibodies in [5] and in [6] were greater than 14 times and greater than 3 times, respectively.
Take “POD-labeled anti-mouse Fab′ (goat anti-mouse IgG (H+L) antibody, Bethyl A90-116A, pepsin-digested and reduced to Fab′, labeled with maleimidated POD)”: the initial stage emission value amounted to 800000 RLU in experiment [4] and 4.2e+06 RLU in experiment [7]. In [5], the fold of initial stage emission value against the horseradish POD-labeled antibodies was greater than 18 times. The fold of initial stage emission value against the horseradish POD-labeled antibody in [8] is 8 times. Also, the absorbance at 405 nm in experiment [2] came out at 1.9; in [9], 1; in experiment [3], 0.4. Besides, the fold of absorbance against the horseradish POD-labeled antibody was 1.3 to 1.4 times in experiment [10] and 2.2 times in [11].
As to “Peroxidase-conjugated AffiniPure Goat Anti-mouse IgG (H+L) (mfd. by Jackson ImmunoResearch Labs.) (antibody)”, in experiment [4], the initial stage emission value was found to be 100000 RLU. Also, the absorbance at 405 nm is 1.4 in experiment [2] and 0.3 in experiment [3].
